Assay [1] has as its target HLA-C*04:01. As to the kind of experiment: IEDB peptide-MHC binding, purified MHC/direct/fluorescence; filed as Kd, often an IC50 or EC50 that approximates it; ≥ and ≤ were set here for values at or beyond the usual limits of such assays.
In a further assay the target is HLA-A*24:03. The assay is described as above.
The target of assay [2] is HLA-B*40:01. As to the kind of experiment: IEDB peptide-MHC binding, purified MHC/competitive/fluorescence; filed as Kd, often an IC50 or EC50 that approximates it; ≥ and ≤ were set here for values at or beyond the usual limits of such assays. The settings on record: source organism: Salmonella enterica subsp. enterica serovar Typhi.
The target of assay [3] is HLA-C*04:01. The assay is described as above. The settings on record: source organism: Salmonella enterica subsp. enterica serovar Typhi.
Another assay concerns the target HLA-B*45:06. The assay is described as above. The settings on record: source organism: Salmonella enterica subsp. enterica serovar Typhi.
The next assay has as its target HLA-B*83:01. The assay is described as above. As to conditions: source organism: Salmonella enterica subsp. enterica serovar Typhi.
Another assay has as its target HLA-B*15:42. The description is as above. As to conditions: source organism: Salmonella enterica subsp. enterica serovar Typhi.
The target of assay [4] is HLA-B*35:01. As to the kind of experiment: IEDB peptide-MHC binding, cellular MHC/competitive/fluorescence; ≥ and ≤ were set here for values at or beyond the usual limits of such assays. As to conditions: source organism: Mycobacterium tuberculosis H37Rv.
The target of assay [5] is HLA-B*40:01. In words: IEDB peptide-MHC binding, purified MHC/direct/fluorescence; filed as Kd, often an IC50 or EC50 that approximates it; ≥ and ≤ were set here for values at or beyond the usual limits of such assays. As to conditions: source organism: Stutzerimonas stutzeri.
Another assay addresses HLA-B*08:01. Described as above. The settings on record: source organism: Stutzerimonas stutzeri.
Another assay concerns the target HLA-A*01:01. Described as above. As to conditions: source organism: Stutzerimonas stutzeri.
Another assay has as its target HLA-B*58:01. The assay is described as above. As to conditions: source organism: Stutzerimonas stutzeri.
In another assay the target is HLA-B*15:01. The description is as above.
For the next assay, the target named is HLA-A*30:01. The description is as above. The settings on record: source organism: Stutzerimonas stutzeri.
For another assay, the target named is HLA-A*31:01. The assay is described as above. As to conditions: source organism: Stutzerimonas stutzeri.
The target in another assay is HLA-A*69:01. The description is as above. As to conditions: source organism: Stutzerimonas stutzeri.
Assay [6] deals with HLA-A*02:01. The assay is described as above.
Assay [7] has as its target HLA-B*27:05. The description is as above. As to conditions: source organism: Stutzerimonas stutzeri.
A further assay deals with HLA-B*07:02. Described as above.
The target of a further assay is HLA-A*26:01. The assay is described as above.
Another assay has as its target HLA-B*73:01. As to the kind of experiment: IEDB peptide-MHC binding, purified MHC/competitive/fluorescence; filed as Kd, often an IC50 or EC50 that approximates it; ≥ and ≤ were set here for values at or beyond the usual limits of such assays.
Assay [8] has as its target HLA-A*02:01. As to the kind of experiment: IEDB peptide-MHC binding, cellular MHC/competitive/fluorescence; ≥ and ≤ were set here for values at or beyond the usual limits of such assays. The settings on record: source organism: Mycobacterium tuberculosis.
A further assay has as its target HLA-C*07:02. As to the kind of experiment: IEDB peptide-MHC binding, purified MHC/direct/fluorescence; filed as Kd, often an IC50 or EC50 that approximates it; ≥ and ≤ were set here for values at or beyond the usual limits of such assays. The settings on record: source organism: Campylobacter jejuni.
The target in the next assay is HLA-A*24:02. As to the kind of experiment: IEDB peptide-MHC binding, purified MHC/competitive/fluorescence; filed as Kd, often an IC50 or EC50 that approximates it; ≥ and ≤ were set here for values at or beyond the usual limits of such assays. The settings on record: source organism: Campylobacter jejuni.
In another assay the target is HLA-A*02:03. As to the kind of experiment: IEDB peptide-MHC binding, purified MHC/direct/fluorescence; filed as Kd, often an IC50 or EC50 that approximates it; ≥ and ≤ were set here for values at or beyond the usual limits of such assays.
Assay [9] deals with HLA-B*35:01. Described as above.
For a further assay, the target named is HLA-B*15:17. The assay is described as above. The settings on record: source organism: Salmonella enterica subsp. enterica serovar Typhimurium.
Another assay deals with HLA-B*27:03. The description is as above.
For a further assay, the target named is HLA-A*02:16. Described as above.
The target in another assay is HLA-B*57:01. The description is as above.
The next assay concerns the target HLA-A*03:01. Described as above.
The target in a further assay is HLA-A*02:19. The description is as above.
The target of another assay is HLA-A*02:12. Described as above.
The target in the next assay is HLA-B*46:01. Described as above.
The target in a further assay is HLA-B*18:01. The assay is described as above. The settings on record: source organism: Salmonella enterica subsp. enterica serovar Typhimurium.
The next assay deals with HLA-A*02:11. The assay is described as above.
A further assay deals with HLA-B*51:01. The assay is described as above. As to conditions: source organism: Vibrio vulnificus CMCP6.
A further assay deals with HLA-B*39:01. Described as above. As to conditions: source organism: Vibrio vulnificus CMCP6.
For a further assay, the target named is HLA-C*06:02. The assay is described as above.
In assay [10] the target is HLA-B*27:05. As to the kind of experiment: IEDB peptide-MHC binding, purified MHC/competitive/fluorescence; filed as Kd, often an IC50 or EC50 that approximates it; ≥ and ≤ were set here for values at or beyond the usual limits of such assays. As to conditions: source organism: Influenza A virus (A/Waikato/7/2000(H3N2)).
The mark [11] stands for this setting: source organism: Mammarenavirus lassaense.
Setting [12] is: source organism: Stutzerimonas stutzeri.
The mark [13] stands for this setting: source organism: Salmonella enterica subsp. enterica serovar Typhimurium.
[14] abbreviates: source organism: Vibrio vulnificus CMCP6.

One may read the Kd as the constant that tells how readily two partners part at equilibrium. Low readings indicate higher affinity, high ones lower affinity. The IC50 is the midpoint of a concentration-inhibition curve.

In the case of FYADPKRYF, the Kd was at least 20 µM with HLA-C*04:01 [1] (setting [11]) and 0.008 µM with HLA-A*24:03 (setting [11]).

On to AEFVFSCGI, for which the Kd in the assay with HLA-B*40:01 [2] was 0.0084 µM; with HLA-C*04:01 [3] it was at least 5 µM; with HLA-B*45:06, at least 5 µM; with HLA-B*83:01, at least 5 µM; in the assay with HLA-B*15:42, at least 5 µM.

In the assay with HLA-B*35:01 [4], IPAEFLENF returned an IC50 of 1 µM.

Turning to GRGQILLGK, the Kd with HLA-B*40:01 [5] is at least 20 µM; in the assay with HLA-B*08:01, at least 20 µM; in the assay with HLA-A*01:01, at least 20 µM; with HLA-B*58:01 it was at least 20 µM; in the assay with HLA-B*15:01 (setting [12]), at least 20 µM; in the assay with HLA-A*30:01, at least 5 µM. Besides, the Kd with HLA-A*31:01 is at least 20 µM; with HLA-A*69:01, at least 20 µM; with HLA-A*02:01 [6] (setting [12]), 5.95 µM; with HLA-B*27:05 [7] it was 0.321 µM; with HLA-B*07:02 (setting [12]) it was at least 20 µM; in the assay with HLA-A*26:01 (setting [12]) it was at least 20 µM. In the assay with HLA-B*73:01 (setting [12]), the Kd is at least 20 µM.

In turn, IPAKFLEGL gave an IC50 in the assay with HLA-B*35:01 [4] of 7.1 µM.

Consider NLLVTGFDT, for which, in the assay with HLA-A*02:01 [8], the IC50 was found to be 2.4 µM.

For TIPEALAAV, in the assay with HLA-A*02:01 [8], the concentration for half-maximal inhibition (IC50) was found to be 2.8 µM.

LYSRSFWFF: the results for the Kd with HLA-C*04:01 [1] (source organism: Campylobacter jejuni), with HLA-C*07:02 and in the assay with HLA-A*24:02 were at least 20 µM, 0.206 µM and at most 0.0001 µM, respectively.

Turning to WPVMQWLTA, the Kd in the assay with HLA-A*02:03 (setting [13]) is at least 20 µM; in the assay with HLA-B*35:01 [9] (setting [13]) it was 0.024 µM; with HLA-B*15:17, at least 20 µM; with HLA-B*27:03 (setting [13]) it was at least 20 µM; with HLA-A*02:16 (setting [13]) it was at least 20 µM; in the assay with HLA-B*57:01 (setting [13]), at least 20 µM. Further, the Kd is at least 20 µM in the assay with HLA-A*03:01 (setting [13]); at least 20 µM with HLA-A*02:19 (setting [13]); at least 20 µM with HLA-A*02:12 (setting [13]); 8 µM with HLA-B*15:01 (setting [13]); at least 20 µM with HLA-A*02:01 [6] (setting [13]); 0.289 µM with HLA-B*07:02 (setting [13]). The Kd in the assay with HLA-B*46:01 (setting [13]), with HLA-B*18:01, in the assay with HLA-A*26:01 (setting [13]) and with HLA-A*02:11 (setting [13]) was at least 20 µM throughout.

EMSLADYLY: the Kd with HLA-A*02:03 (setting [14]) was at least 20 µM; with HLA-B*35:01 [9] (setting [14]) it was 0.027 µM; with HLA-B*27:03 (setting [14]), at least 20 µM; with HLA-A*02:16 (setting [14]), at least 20 µM; with HLA-B*51:01 it was at least 20 µM; with HLA-B*57:01 (setting [14]) it was at least 20 µM. Also, the Kd with HLA-A*03:01 (setting [14]) was at least 20 µM; with HLA-A*02:19 (setting [14]), at least 20 µM; with HLA-A*02:12 (setting [14]), at least 20 µM; in the assay with HLA-B*39:01 it was at least 20 µM; in the assay with HLA-B*15:01 (setting [14]), 0.029 µM; with HLA-A*24:03 (setting [14]), at least 20 µM. Moreover, the Kd with HLA-A*02:01 [6] (setting [14]), in the assay with HLA-B*07:02 (setting [14]), with HLA-B*46:01 (setting [14]), with HLA-A*26:01 (setting [14]) and with HLA-A*02:11 (setting [14]) was at least 20 µM each time.

On to YRTLLMNEL, for which the figures for the Kd with HLA-C*06:02 (source organism: Influenza A virus (A/Waikato/7/2000(H3N2))) and with HLA-B*27:05 [10] were 0.009 µM and 0.0539 µM, respectively.

As to CRRLNTKYL, the Kd with HLA-C*06:02 (source organism: Aquifex aeolicus VF5) amounted to 0.173 µM.

In the assay with HLA-B*73:01 (source organism: Burkholderia vietnamiensis G4), SRFLRRPAQ came in with a Kd of 0.67 µM.

The record behind these values is the Immune Epitope Database (IEDB).
